This note sets out measurements from article PMC9702538.

For assay [1], the target named is zebrafish Comp, tissue-derived (zebrafish (endogenous in 5 dpf whole zebrafish)). Kind of assay: non-reducing agarose/polyacrylamide composite gel electrophoresis; sequential extracts (TBS; 1 M NaCl/EDTA; 8 M urea) of whole 5 dpf zebrafish; 0.5% agarose/3% polyacrylamide composite gel, non-reducing; immunoblot with guinea pig antibodies to zebrafish Comp.
Assay [2] addresses recombinant zebrafish Comp (cartilage oligomeric matrix protein) (zebrafish). Briefly: non-reducing agarose/polyacrylamide composite gel electrophoresis; purified recombinant Comp; 0.5% agarose/3% polyacrylamide composite gel, SDS sample buffer with 2 M urea, non-reducing; immunoblot with guinea pig antibodies to zebrafish Comp; recombinant rat COMP as marker of the pentamer.

Substance “zebrafish Comp, tissue-derived (natural protein)” returned a stoichiometry N in assay [1] of 5. In the case of “recombinant zebrafish Comp (cartilage oligomeric matrix protein)”, the stoichiometry N in assay [2] was found to be 5.
